We go through 1 molecule from publication PMC11891296, “Mechanical forces and ligand binding modulate Pseudomonas aeruginosa PilY1 mechanosensitive protein” (Life Science Alliance, 2025).

For the experiment, the target named is T1, recombinant αVβ5 human integrin extracellular domains (human, UniProt P06756 31-992; P18084 24-719).
T1 construct: integrin alpha-V, human, extracellular domain; integrin beta-5, human, extracellular domain; also called integrin αVβ5 heterodimer; source: bought: R&D Systems
T1 sequence (P06756 31-992, chain 1 of 2): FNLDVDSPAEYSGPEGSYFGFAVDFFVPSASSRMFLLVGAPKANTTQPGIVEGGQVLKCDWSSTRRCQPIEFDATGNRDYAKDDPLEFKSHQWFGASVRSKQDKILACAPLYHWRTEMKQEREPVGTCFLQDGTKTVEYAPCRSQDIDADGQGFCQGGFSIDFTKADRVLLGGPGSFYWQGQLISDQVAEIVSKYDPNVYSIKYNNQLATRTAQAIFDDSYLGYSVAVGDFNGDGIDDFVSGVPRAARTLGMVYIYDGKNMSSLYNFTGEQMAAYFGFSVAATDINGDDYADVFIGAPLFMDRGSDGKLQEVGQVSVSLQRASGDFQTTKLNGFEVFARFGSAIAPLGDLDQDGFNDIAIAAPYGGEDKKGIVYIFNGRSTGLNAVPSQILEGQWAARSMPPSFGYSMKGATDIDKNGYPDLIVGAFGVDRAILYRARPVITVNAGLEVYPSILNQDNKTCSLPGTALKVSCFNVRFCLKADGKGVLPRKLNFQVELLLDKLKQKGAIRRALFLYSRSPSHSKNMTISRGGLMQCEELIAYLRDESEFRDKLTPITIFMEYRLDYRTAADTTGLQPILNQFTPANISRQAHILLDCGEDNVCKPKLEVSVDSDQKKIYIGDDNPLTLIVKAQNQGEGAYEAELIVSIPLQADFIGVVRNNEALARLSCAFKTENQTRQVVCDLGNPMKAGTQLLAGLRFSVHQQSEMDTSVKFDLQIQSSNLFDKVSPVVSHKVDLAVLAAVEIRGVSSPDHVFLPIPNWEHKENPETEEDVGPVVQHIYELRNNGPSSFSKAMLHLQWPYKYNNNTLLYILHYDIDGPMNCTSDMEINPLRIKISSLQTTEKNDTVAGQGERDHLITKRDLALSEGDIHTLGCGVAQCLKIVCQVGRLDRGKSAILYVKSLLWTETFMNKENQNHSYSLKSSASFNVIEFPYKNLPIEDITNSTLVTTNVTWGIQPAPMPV
T1 sequence (P18084 24-719, chain 2 of 2): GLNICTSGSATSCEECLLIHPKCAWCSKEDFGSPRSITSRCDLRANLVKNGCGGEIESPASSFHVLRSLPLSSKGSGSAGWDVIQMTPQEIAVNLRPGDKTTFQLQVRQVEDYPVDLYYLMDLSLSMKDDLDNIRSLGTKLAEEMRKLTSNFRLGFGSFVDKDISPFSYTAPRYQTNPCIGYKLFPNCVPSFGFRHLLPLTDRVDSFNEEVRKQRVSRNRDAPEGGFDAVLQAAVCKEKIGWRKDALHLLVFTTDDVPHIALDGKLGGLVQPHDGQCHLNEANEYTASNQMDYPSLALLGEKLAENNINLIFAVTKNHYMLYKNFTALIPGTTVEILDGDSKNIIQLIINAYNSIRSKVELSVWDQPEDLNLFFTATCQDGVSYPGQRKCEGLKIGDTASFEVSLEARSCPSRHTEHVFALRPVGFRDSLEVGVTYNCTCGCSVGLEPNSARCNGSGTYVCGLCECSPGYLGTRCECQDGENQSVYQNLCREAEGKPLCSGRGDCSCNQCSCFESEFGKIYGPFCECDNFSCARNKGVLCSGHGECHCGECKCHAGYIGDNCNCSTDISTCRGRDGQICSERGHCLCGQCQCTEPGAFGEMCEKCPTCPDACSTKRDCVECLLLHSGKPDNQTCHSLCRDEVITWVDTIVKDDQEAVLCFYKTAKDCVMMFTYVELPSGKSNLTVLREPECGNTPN
As to the kind of experiment: single-molecule magnetic tweezers; PilY1 construct tethered between HaloTag-ligand glass and streptavidin-coated superparamagnetic bead, held at constant low force (5-6 pN, below 7 pN) where I1 and I2 fold and unfold; 200 nM integrin added in binding buffer (10 mM Hepes pH 7.2, 150 mM NaCl, 10 mM ascorbic acid, 2 mM CaCl2, 1 mM MgCl2, 1 mM MnCl2); binding read as shortening of the unfolded extension of I2. The following applies: both partners purified.

B1: PilY1^501−1161 chimeric polyprotein (HaloTag-(I32)2-PilY1 residues 501-1161-(I32)2-HisTag-AviTag) (domain or fragment)
chain: ISSSLQEDDTGDKLTRFAYQTSFASDKNWAGDLTRYSLTTQDKATVQTKLWSAQSILDAMPNGGAGRKIMMAGSGTSGLKEFTWGSLSADQQRQLNRDPDRNDVADTKGQDRVAFLRGDRRKENSDNFRTRNSILGDIINSSPATVGKAQYLTYLAQPIEPSGNYSTFAEAQKTRAPRVYVGANDGMLHGFDTDGNETFAFIPSAVFEKLHKLTARGYQGGAHQFYVDGSPVVADAFFGGAWHTVLIGSLRAGGKGLFALDVTDPANIKLLWEIGVDQEPDLGYSFPKPTVARLHNGKWAVVTGNGYSSLNDKAALLIIDLETGAITRKLEVTGRTGVPNGLSSPRLADNNSDGVADYAYAGDLQGNLWRFDLIAGKVNQDDPFSRANDGPAVASSFRVSFGGQPLYSAVDSAGAAQAITAAPSLVRHPTRKGYIVIFGTGKYFENADARADTSRAQTLYGIWDQQTKGEAAGSTPRLTRGNLQQQTLDLQADSTFASTARTIRIASQNPVNWLNNDGSTKQSGWYLDFMVNGTLKGEMLIEDMIAIGQVVLLQTITPNDDPCADGASNWTYGLDPYTGGRTSFTVFDLARQGVVDSKSDYSYNKQNVAVSGTEQKGLGGLTLSTNEQGNPEVCSSGECLTVNPGPNTRGRQNWRPIEGKN
modifications: biotin on the AviTag
notes: gene optimized for expression in E. coli; The HisTag lies between the last I32 and the AviTag; also called PilY1 C-terminal section; source: E. coli BL21 Star, purified (HisPur Cobalt resin, Superdex 200 SEC), biotinylated in vitro; not shown: HaloTag, N-terminal, kept; 2x human titin I32 domain, N-terminal, kept; 2x human titin I32 domain, C-terminal, kept; AviTag (biotinylated), C-terminal, kept
For the molecule B1, the binding result is reported as “binds”.
